{
  "source": "patent US20220088190A1",
  "about": "(published 2022)",
  "binders": {"B1": {"name": "TCR831 (TCR, V domains shown)", "Valpha": "ELKVEQNPLFLSMQEGKNYTIYCNYSTTSDRLYWYRQDPGKSLESLFVLLSNGAVKQEGRLMASLDTKARLSTLHITAAVHDLSATYFCAVDKDGGYQKVTFGTGTKLQVIP", "Vbeta": "GAVVSQHPSWVICKSGTSVKIECRSLDFQATTMFWYRQFPKQSLMLMATSNEGSKATYEQGVEKDKFLINHASLTLSTLTVTSAHPEDSSFYICSASPRAGQLSSYNSPLHFGNGTRLTVT"}, "B2": {"name": "TCR833 (TCR, V domains shown)", "Valpha": "RKEVEQDPGPFNVPEGATVAFNCTYSNSASQSFFWYRQDCRKEPKLLMSVYSSGNEDGRFTAQLNRASQYISLLIRDSKLSDSATYLCAVNPPDTGFQKLVFGTGTRLLVSP", "Vbeta": "DVKVTQSSRYLVKRTGEKVFLECVQDMDHENMFWYRQDPGLGLRLIYFSYDVKMKEKGDIPEGYSVSREKKERFSLILESASTNQTSMYLCASSLSFRQGLREQYFGPGTRLTVT"}, "B3": {"name": "TCR897 (TCR, V domains shown)", "Valpha": "SQQGEEDPQALSIQEGENATMNCSYKTSINNLQWYRQNSGRGLVHLILIRSNEREKHSGRLRVTLDTSKKSSSLLITASRAADTASYFCATDPGGFKTIFGAGTRLFVKA", "Vbeta": "EAGVAQSPRYKIIEKRQSVAFWCNPISGHATLYWYQQILGQGPKLLIQFQNNGVVDDSQLPKDRFSAERLKGVDSTLKIQPAKLEDSAVYLCASSLYGGSISYEQYFGPGTRLTVT"}, "B4": {"name": "TCR896 (TCR, V domains shown)", "Valpha": "AQKVTQAQTEISVVEKEDVTLDCVYETRDTTYYLFWYKQPPSGELVFLIRRNSFDEQNEISGRYSWNFQKSTSSFNFTITASQVVDSAVYFCALSEAGTYKYIFGTGTRLKVLA", "Vbeta": "DSGVTQTPKHLITATGQRVTLRCSPRSGDLSVYWYQQSLDQGLQFLIQYYNGEERAKGNILERFSAQQFPDLHSELNLSSLELGDSALYFCASSVAGGGQETQYFGPGTRLLVL"}, "B5": {"name": "TCR847 (TCR, V domains shown)", "Valpha": "SQQGEEDPQALSIQEGENATMNCSYKTSINNLQWYRQNSGRGLVHLILIRSNEREKHSGRLRVTLDTSKKSSSLLITASRAADTASYFCATFPNFGNEKLTFGTGTRLTIIP", "Vbeta": "DAGITQSPRHKVTETGTPVTLRCHQTENHRYMYWYRQDPGHGLRLIHYSYGVKDTDKGEVSDGYSVSRSKTEDFLLTLESATSSQTSVYFCAISESERYYEQYFGPGTRLTVT"}, "B6": {"name": "TCR864 (TCR, V domains shown)", "Valpha": "LAKTTQPISMDSYEGQEVNITCSHNNIATNDYITWYQQFPSQGPRFIIQGYKTKVTNEVASLFIPADRKSSTLSLPRVSLSDTAVYYCLVGDFNSNSGYALNFGKGTSLLVTP", "Vbeta": "GAGVSQSPSNKVTEKGKDVELRCDPISGHTALYWYRQRLGQGLEFLIYFQGNSAPDKSGLPSDRFSAERTGESVSTLTIQRTQQEDSAVYLCASKVYGYTFGSGTRLTVV"}},
  "key": {"[1]": {"target": "T1, RAS wild type peptide on HLA-A*11:01 (human)", "T1 peptide": "VVVGAGGVGK", "test": "killing"}, "[2]": {"target": "T2, RAS G12V peptide on HLA-A*03:01 (human)", "T2 peptide": "VVVGAVGVGK", "test": "cytokine release"}, "[3]": {"target": "T3, RAS G12V peptide on HLA-A*11:01 (human)", "T3 peptide": "VVVGAVGVGK", "test": "multimer staining"}, "[4]": {"target": "T4, RAS G12C peptide on HLA-A*11:01 (human)", "T4 peptide": "VVVGACGVGK", "test": "activation reporter or marker"}, "[5]": {"target": "T5, RAS G12V peptide on HLA-A*11:01 (human)", "T5 peptide": "VVGAVGVGK", "test": "multimer staining"}, "[6]": {"target": "T6, RAS wild type peptide on HLA-A*11:01 (human)", "T6 peptide": "VVGAGGVGK", "test": "activation reporter or marker"}, "[7]": {"target": "T7, RAS G12C peptide on HLA-A*11:01 (human)", "T7 peptide": "VVGACGVGK", "test": "activation reporter or marker"}, "[8]": {"target": "T8, RAS G12D peptide on HLA-A*11:01 (human)", "T8 peptide": "VVGADGVGK", "test": "activation reporter or marker"}, "[9]": {"target": "T9, RAS wild type peptide on HLA-A*03:01 (human)", "T9 peptide": "VVVGAGGVGK", "test": "killing"}, "[10]": {"target": "T2, RAS G12V peptide on HLA-A*03:01", "test": "multimer staining"}, "[11]": {"target": "T10, RAS G12C peptide on HLA-A*03:01 (human)", "T10 peptide": "VVVGACGVGK", "test": "activation reporter or marker"}, "[12]": {"target": "T11, RAS G12D peptide on HLA-A*03:01 (human)", "T11 peptide": "VVVGADGVGK", "test": "activation reporter or marker"}, "[13]": {"target": "T12, RAS G12R peptide on HLA-A*03:01 (human)", "T12 peptide": "VVVGARGVGK", "test": "activation reporter or marker"}, "[14]": {"target": "T13, RAS G12R peptide on HLA-B*07:02 (human)", "T13 peptide": "GARGVGKSAL", "test": "multimer staining"}, "[15]": {"target": "T14, RAS wild type peptide on HLA-B*07:02 (human)", "T14 peptide": "GAGGVGKSAL", "test": "activation reporter or marker"}, "[16]": {"target": "T15, RAS G12C peptide on HLA-B*07:02 (human)", "T15 peptide": "GACGVGKSAL", "test": "activation reporter or marker"}, "[17]": {"target": "T16, RAS G12D peptide on HLA-B*07:02 (human)", "T16 peptide": "GADGVGKSAL", "test": "activation reporter or marker"}, "[18]": {"target": "T17, RAS G12V peptide on HLA-B*07:02 (human)", "T17 peptide": "GAVGVGKSAL", "test": "activation reporter or marker"}, "[19]": {"target": "T14, RAS wild type peptide on HLA-B*07:02", "test": "killing"}},
  "data": [
    {"binder": "B1", "values": [
      {"measurement": "binding result", "setting": "[1]", "value": "no recognition"},
      {"measurement": "binding result", "setting": "[2]", "value": "no recognition"},
      {"measurement": "binding result", "setting": "[3]", "value": "recognises"},
      {"measurement": "binding result", "setting": "[4]", "value": "recognises"}
    ]},
    {"binder": "B2", "values": [
      {"measurement": "binding result", "setting": "[1]", "value": "no recognition"},
      {"measurement": "binding result", "setting": "[2]", "value": "no recognition"},
      {"measurement": "binding result", "setting": "[3]", "value": "recognises"},
      {"measurement": "binding result", "setting": "[4]", "value": "recognises"}
    ]},
    {"binder": "B3", "values": [
      {"measurement": "binding result", "setting": "[5]", "value": "recognises"},
      {"measurement": "binding result", "setting": "[6]", "value": "no recognition"},
      {"measurement": "binding result", "setting": "[7]", "value": "recognises"},
      {"measurement": "binding result", "setting": "[8]", "value": "recognises"}
    ]},
    {"binder": "B4", "values": [
      {"measurement": "binding result", "setting": "[9]", "value": "no recognition"},
      {"measurement": "binding result", "setting": "[10]", "value": "recognises"},
      {"measurement": "binding result", "setting": "[11]", "value": "no recognition"},
      {"measurement": "binding result", "setting": "[12]", "value": "no recognition"},
      {"measurement": "binding result", "setting": "[13]", "value": "no recognition"}
    ]},
    {"binder": "B5", "values": [
      {"measurement": "binding result", "setting": "[14]", "value": "recognises"},
      {"measurement": "binding result", "setting": "[15]", "value": "no recognition"},
      {"measurement": "binding result", "setting": "[16]", "value": "no recognition"},
      {"measurement": "binding result", "setting": "[17]", "value": "no recognition"},
      {"measurement": "binding result", "setting": "[18]", "value": "no recognition"}
    ]},
    {"binder": "B6", "values": [
      {"measurement": "binding result", "setting": "[19]", "value": "no recognition"},
      {"measurement": "binding result", "setting": "[14]", "value": "recognises"},
      {"measurement": "binding result", "setting": "[16]", "value": "no recognition"},
      {"measurement": "binding result", "setting": "[17]", "value": "no recognition"},
      {"measurement": "binding result", "setting": "[18]", "value": "no recognition"}
    ]}
  ]
}
